Several values for one entry are separate records, joined by “and”; a condition that tells them apart may be missing. Identical values can stand only once.
T1: specific receptors for CSF-1 on J774.2 mouse macrophage cells (mouse) (UniProt P09581)
T1 sequence: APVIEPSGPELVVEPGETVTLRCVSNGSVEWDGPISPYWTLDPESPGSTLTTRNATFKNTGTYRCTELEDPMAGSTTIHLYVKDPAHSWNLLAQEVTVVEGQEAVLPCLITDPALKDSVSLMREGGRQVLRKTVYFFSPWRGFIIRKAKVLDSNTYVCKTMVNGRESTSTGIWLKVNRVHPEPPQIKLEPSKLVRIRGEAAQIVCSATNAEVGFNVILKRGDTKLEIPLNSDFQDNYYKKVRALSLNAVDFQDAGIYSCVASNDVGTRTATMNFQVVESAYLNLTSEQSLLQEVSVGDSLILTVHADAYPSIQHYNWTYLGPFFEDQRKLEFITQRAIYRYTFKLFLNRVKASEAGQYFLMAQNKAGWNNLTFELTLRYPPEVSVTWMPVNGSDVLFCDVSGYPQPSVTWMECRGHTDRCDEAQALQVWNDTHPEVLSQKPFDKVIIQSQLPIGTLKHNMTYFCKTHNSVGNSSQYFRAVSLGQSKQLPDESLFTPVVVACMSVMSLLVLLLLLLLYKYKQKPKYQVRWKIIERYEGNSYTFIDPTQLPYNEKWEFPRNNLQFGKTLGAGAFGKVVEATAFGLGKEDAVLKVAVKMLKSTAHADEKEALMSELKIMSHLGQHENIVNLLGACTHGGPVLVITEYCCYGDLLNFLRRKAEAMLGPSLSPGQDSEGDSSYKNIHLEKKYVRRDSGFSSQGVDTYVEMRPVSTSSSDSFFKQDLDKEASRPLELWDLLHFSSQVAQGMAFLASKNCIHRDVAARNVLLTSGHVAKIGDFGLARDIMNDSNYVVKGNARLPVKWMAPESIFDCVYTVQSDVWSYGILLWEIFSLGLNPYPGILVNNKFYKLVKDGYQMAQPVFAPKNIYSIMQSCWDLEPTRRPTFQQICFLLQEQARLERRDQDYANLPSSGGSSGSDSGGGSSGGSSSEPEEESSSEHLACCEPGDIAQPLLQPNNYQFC

T2: specific receptors for CSF-1 on J774.2 mouse macrophage cells (mouse, UniProt P09581)
T2 sequence: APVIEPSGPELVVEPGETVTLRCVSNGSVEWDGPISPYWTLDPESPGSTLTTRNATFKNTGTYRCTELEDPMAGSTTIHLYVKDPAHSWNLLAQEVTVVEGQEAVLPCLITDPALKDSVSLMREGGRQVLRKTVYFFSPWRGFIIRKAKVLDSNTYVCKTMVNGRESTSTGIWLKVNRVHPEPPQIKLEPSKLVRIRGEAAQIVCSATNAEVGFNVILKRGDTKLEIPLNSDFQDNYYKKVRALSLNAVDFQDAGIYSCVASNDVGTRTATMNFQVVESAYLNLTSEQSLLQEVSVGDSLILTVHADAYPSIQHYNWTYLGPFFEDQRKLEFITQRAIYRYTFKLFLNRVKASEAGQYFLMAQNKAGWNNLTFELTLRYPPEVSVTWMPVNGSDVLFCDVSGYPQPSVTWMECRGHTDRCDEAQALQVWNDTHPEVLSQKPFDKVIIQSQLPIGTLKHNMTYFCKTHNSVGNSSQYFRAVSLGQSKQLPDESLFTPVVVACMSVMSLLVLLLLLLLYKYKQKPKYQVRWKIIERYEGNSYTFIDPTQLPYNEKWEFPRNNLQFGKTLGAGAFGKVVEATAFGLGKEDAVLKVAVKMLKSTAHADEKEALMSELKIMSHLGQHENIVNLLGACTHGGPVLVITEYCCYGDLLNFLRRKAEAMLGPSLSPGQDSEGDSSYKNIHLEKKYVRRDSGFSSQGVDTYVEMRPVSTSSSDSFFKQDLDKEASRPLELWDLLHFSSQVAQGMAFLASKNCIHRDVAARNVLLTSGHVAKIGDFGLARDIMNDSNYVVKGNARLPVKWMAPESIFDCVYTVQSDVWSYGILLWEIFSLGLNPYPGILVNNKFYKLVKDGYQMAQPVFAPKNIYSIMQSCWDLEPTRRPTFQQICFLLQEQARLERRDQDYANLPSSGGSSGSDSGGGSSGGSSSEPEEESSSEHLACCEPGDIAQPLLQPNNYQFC


Experiments:
[1] = molecular target: T1, specific receptors for CSF-1 on J774.2 mouse macrophage cells (mouse)
[2] = molecular target: T1, specific receptors for CSF-1 on J774.2 mouse macrophage cells (mouse); remark: listed apart in the source
[3] = molecular target: rabbit antisera raised against human urinary CSF-1; test: radioimmunoassay using anti-CSF antibodies, COS-A2 supernatant
[4] = molecular target: T2, specific receptors for CSF-1 on J774.2 …; test: cell-based or functional assay
[5] = molecular target: rabbit antisera raised against human urinary CSF-1; test: radioimmunoassay using anti-CSF antibodies, COS-A2 supernatant; first of three values
[6] = molecular target: T1, specific receptors for CSF-1 on J774.2 mouse macrophage cells (mouse); test: radioreceptor assay: competition with 125I-labelled CSF-1 for receptors on J774.2 mouse macrophage cells; MIAPaCa supernatant as standard
[7] = molecular target: "Rabbit 52" polyclonal antiserum raised against purified human urinary CSF-1; test: radioimmunoassay: competition with 125I-labelled MIAPaCa CSF-1 for Rabbit 52 antiserum; medium of SV40-infected CV-1 cells

Row | Molecule | Bone Marrow Assay, Colony (units/ml) [1] [units/ml] | Bone Marrow Assay, Proliferation (units/ml) [1] [units/ml] | Radioimmunoassay (units/ml) [5] [units/ml] | other results
1 | pro52 SCSF, expression product of pCSF-pro52 (ligand) | < 100 | < 25 | – | –
2 | asp59 SCSF/C∇150, expression product of pCSF-asp59-gly150 (ligand) | – | – | – | Mouse Bone Marrow Colony Assay, Colony Forming Units/ml (Colony Forming Units/ml) [2]: 131000
3 | asp59 SCSF, expression product of pCSF-asp59 (ligand) | 9000 | 3380 | – | –
4 | gln52 SCSF, expression product of pCSF-gln52 (ligand) | 6210 | 2970 | – | –
5 | asp59 SCSF/C∇158, expression product of pCSF-asp59-BamBcl (ligand) | – | – | – | Mouse Bone Marrow Colony Assay, Colony Forming Units/ml (Colony Forming Units/ml) [2]: 72000
6 | SCSF/C∇150, expression product of pCSF-Gly150 (ligand) EEVSEYCSHMIGSGHLQSLQRLIDSQMETSCQITFEFVDQEQLKDPVCYLKKAFLLVQYIMEDTMRFRDNTPNAIAIVQLQELSLRLKSCFTKDYEEHDKACVRTFYETPLQLLEKVKNVFNETKNLLDKDWNIFSKNCNNSFAECSSQG | – | – | – | Radioimmunoassay (units/ml) [3]: 26800 units/ml; Bone Marrow Assay, Colony (units/ml) [4]: 55700 units/ml
7 | SCSF, expression product of pcCSF-17 (short form of human CSF-1) (ligand) EEVSEYCSHMIGSGHLQSLQRLIDSQMETSCQITFEFVDQEQLKDPVCYLKKAFLLVQYIMEDTMRFRDNTPNAIAIVQLQELSLRLKSCFTKDYEEHDKACVRTFYETPLQLLEKVKNVFNETKNLLDKDWNIFSKNCNNSFAECSSQGHERQSEGSSSPQLQESVFHLLVPSVILVLLAVGGLLFYRWRRRSHQEPQRADSPLEQPEGSPLTQDDRQVELPV | 11100 | 2800 | 3130 | CSF-1 concentration by radioreceptor assay [6]: 2470 U/ml and 3240 U/ml; CSF-1 by radioimmunoassay (U/ml) [7]: 2340 U/ml
8 | expression product of pCSF-Bam: 158 amino acids of CSF-1 fused to six vector-derived residues (ligand) EEVSEYCSHMIGSGHLQSLQRLIDSQMETSCQITFEFVDQEQLKDPVCYLKKAFLLVQYIMEDTMRFRDNTPNAIAIVQLQELSLRLKSCFTKDYEEHDKACVRTFYETPLQLLEKVKNVFNETKNLLDKDWNIFSKNCNNSFAECSSQGHERQSEGSRHDKIH | – | – | 9600 | Bone Marrow Assay, Colony (units/ml) [4]: 22600 units/ml
9 | SCSF/C∇158, expression product of pCSF-BamBcl (ligand) EEVSEYCSHMIGSGHLQSLQRLIDSQMETSCQITFEFVDQEQLKDPVCYLKKAFLLVQYIMEDTMRFRDNTPNAIAIVQLQELSLRLKSCFTKDYEEHDKACVRTFYETPLQLLEKVKNVFNETKNLLDKDWNIFSKNCNNSFAECSSQGHERQSEGS | – | – | 8800 | –
10 | SCSF/C∇158, expression product of pCSF-BamTGA (ligand) EEVSEYCSHMIGSGHLQSLQRLIDSQMETSCQITFEFVDQEQLKDPVCYLKKAFLLVQYIMEDTMRFRDNTPNAIAIVQLQELSLRLKSCFTKDYEEHDKACVRTFYETPLQLLEKVKNVFNETKNLLDKDWNIFSKNCNNSFAECSSQGHERQSEGS | – | – | 8450 | –

From patent US5681719, “DNA encoding N- and C- terminally truncated colony stimulating factor-1 variants” (Chiron Corporation, dated 1997)
